Patent US20170242041

Columns and labels:
[1] = system: recombinant human GFAP with C-terminal tag (DDK)
Sequence of recombinant human GFAP with C-terminal tag (DDK) (chain, as listed by the source): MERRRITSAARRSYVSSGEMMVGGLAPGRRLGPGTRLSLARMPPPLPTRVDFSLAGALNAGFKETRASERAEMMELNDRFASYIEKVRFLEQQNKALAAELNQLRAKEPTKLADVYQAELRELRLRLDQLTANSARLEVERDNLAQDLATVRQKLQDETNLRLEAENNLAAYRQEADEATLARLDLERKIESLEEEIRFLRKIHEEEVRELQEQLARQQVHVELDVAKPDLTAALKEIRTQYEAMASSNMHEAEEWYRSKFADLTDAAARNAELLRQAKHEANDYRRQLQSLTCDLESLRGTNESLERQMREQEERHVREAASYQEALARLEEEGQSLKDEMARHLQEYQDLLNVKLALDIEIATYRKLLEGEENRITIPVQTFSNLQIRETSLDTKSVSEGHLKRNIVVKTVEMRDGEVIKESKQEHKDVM

Sequence of calpain-2 (P17655 20-700): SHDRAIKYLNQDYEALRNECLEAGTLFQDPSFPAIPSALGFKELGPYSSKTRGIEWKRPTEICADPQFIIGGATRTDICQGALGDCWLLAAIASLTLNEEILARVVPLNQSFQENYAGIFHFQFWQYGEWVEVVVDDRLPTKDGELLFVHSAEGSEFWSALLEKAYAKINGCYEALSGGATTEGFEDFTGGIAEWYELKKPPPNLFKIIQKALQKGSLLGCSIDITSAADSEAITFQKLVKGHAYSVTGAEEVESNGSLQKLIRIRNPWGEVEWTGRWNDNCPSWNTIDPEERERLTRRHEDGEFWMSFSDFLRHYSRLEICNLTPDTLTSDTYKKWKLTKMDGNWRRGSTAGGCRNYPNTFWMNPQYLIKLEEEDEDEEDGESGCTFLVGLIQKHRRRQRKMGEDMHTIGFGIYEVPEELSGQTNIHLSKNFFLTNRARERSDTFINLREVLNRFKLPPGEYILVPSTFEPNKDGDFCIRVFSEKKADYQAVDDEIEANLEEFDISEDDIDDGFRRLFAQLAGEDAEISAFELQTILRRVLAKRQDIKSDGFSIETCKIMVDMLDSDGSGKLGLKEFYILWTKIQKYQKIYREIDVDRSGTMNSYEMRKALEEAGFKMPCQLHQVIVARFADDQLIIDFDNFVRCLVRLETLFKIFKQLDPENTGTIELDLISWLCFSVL
Sequence of rat Tau (intact protein) (chain, as listed by the source): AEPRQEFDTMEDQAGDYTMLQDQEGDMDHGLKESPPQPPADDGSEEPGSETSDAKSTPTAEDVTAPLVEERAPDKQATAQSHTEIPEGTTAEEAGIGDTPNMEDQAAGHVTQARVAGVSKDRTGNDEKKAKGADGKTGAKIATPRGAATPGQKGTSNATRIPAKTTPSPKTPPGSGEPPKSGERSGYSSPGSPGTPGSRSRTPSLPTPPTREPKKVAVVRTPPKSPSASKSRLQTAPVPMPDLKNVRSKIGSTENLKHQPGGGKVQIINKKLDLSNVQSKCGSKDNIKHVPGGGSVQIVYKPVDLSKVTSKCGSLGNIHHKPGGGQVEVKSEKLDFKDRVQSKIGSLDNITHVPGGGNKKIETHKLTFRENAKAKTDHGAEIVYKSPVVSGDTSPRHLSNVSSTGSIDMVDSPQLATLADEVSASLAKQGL
Sequence of calpain-1 (P07384 2-714): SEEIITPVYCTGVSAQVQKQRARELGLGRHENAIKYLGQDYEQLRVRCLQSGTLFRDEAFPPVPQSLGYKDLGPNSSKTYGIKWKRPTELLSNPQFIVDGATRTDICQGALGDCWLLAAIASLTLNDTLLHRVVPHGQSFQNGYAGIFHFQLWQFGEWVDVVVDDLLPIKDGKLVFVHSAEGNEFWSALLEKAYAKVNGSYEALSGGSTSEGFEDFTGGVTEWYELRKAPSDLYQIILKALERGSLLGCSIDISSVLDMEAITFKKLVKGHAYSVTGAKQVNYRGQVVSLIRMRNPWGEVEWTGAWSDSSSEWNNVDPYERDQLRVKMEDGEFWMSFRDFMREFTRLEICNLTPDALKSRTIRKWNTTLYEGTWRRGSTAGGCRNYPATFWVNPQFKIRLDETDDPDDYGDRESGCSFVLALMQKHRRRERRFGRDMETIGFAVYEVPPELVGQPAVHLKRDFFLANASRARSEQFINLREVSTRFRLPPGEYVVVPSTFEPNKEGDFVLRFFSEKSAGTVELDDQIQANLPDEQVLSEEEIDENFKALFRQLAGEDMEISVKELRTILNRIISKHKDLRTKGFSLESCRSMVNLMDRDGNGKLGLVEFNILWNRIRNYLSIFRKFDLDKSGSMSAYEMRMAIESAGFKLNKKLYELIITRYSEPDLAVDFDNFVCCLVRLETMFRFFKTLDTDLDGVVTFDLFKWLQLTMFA

Substance	proteolytic digestion, western blot of fragments (rat Tau (intact protein))	proteolytic digestion, western blot with anti-total tau antibody (human Tau)	proteolytic cleavage; N-terminal sequencing of excised GBDP bands [1]	proteolytic cleavage; N-terminal sequencing of fragments (rat Tau (intact protein))	proteolytic cleavage sites (human Tau)	proteolytic cleavage (Coomassie, anti-DDK and anti-GFAP western blot) [1]
calpain-2	Both calpain-1 and -2 digest tau into several immunoreactive fragments (42 kDa, 35 kDa and 15 kDa)	Treatment of human tau with calpain or caspase produce numerous breakdown products	cleavage by calpain 2 at Asn59 (GALN*59AGFKETRASERAE) ... and Thr383 (TIPVQT*383FSNLQIRET) ... overall producing multiple GBDPs between 49 and 38 kDa in recombinant human GFAP			
calpain (calpain 2 or calpain 1)				Calpain cleaves rat tau at Lys43 ... Ser120 ... Val220 ... and Arg370	Human TBDPs are produced from Human Tau by calpain cleavage at Ser129 ... Val229 ... Gly157 ... Lys44 ... and Arg379	
caspase-3	caspase-3 digestion only produces limited fragment doublet of 48 kDa/45/kDa	Treatment of human tau with calpain or caspase produce numerous breakdown products		Caspase-3 cleaves rat Tau at Asp412 (SSTGSIDMVD*412SPQLATLA (SEQ ID NO: 10))	Caspase cleavage sites in human Tau are Asp25 (GDRKD*25QGGYTMHQD (SEQ ID NO: 17)) ... and Asp421 (SSTGSIDMVD*421SPQLATLA (SEQ ID NO: 18))	illustrates successful cleavage by both calpain and caspase
calpain-1	Both calpain-1 and -2 digest tau into several immunoreactive fragments (42 kDa, 35 kDa and 15 kDa)					
